Source: patent US20250339531A1, “DUX4 POLYPEPTIDES AND NUCLEIC ACIDS FOR TREATING INFLAMMATORY AND AUTOIMMUNE CONDITIONS” (Fred Hutchinson Cancer Center, priority 2021, published 2025)

System: proteins that co-immunoprecipitated with DUX4-CTD constructs expressed in MB135 myoblasts
Test: LC-MS of proteins co-immunoprecipitated with DUX4-CTD (Table 1) and western validation
Format: binding, human
Design: key to 4. mL1dL2 + Dox + IFNG / 4. + IFNG mix / 4. longCTD + Dox + IFNG / 3. + IFNg + Dox longCTD / 3. + Dox longCTD / 3. + IFNG longCTD: peptide-spectrum matches (PSMs) per protein
Conditions: kind of count not given; for 4. mL1dL2 + Dox + IFNG: LC-MS value per protein co-immunoprecipitated with DUX4-CTD construct mL1dL2 in MB135 myoblasts; for 4. + IFNG mix: LC-MS value per protein co-immunoprecipitated from MB135 myoblasts, + IFNG mix sample (no Dox)
From the text: As an unbiased method to identify proteins that interact with the C-terminal region of DUX4, liquid chromatography mass spectroscopy (LC-MS) was used to identify proteins that co-immunoprecipitated with DUX4-CTD constructs expressed in MB135 myoblasts. In the first experiment, MB135iDUX4-CTD cells were used, either untreated, treated with doxycycline alone, or with both doxycycline and IFNG. In the second experiment, MB135iDUX4-CTD and MB135iDUX4mL1dL2 cells were used, both treated with doxycycline and IFNG, compared to these two cell lines untreated and combined as a control. Proteins with a minimum of 2 peptide spectrum matches (PSMs) in at least one sample that were identified in both experiments were assigned to one of ten categories (see Methods) to separate candidate interactors from other categories that might be co-purified because of obligate interactions (e.g., proteasome or ribosome) or might be less likely to be physiologically relevant (e.g., cytoskeletal proteins). Candidate interactors were then ranked based on the total PSMs for that protein across all samples.
Centrifugation at 2500 rcf at 4° C. for 5 min pelleted the nuclei, supernatant was discarded, and nuclei resuspended in 1 mL IP buffer pH 7.4 (25 mM Tris-HCl pH 7.5, 175 mM NaCl, 1 mM EDTA, 0.2% NP-40, 5% glycerol) and incubated for 1 hour at 4° C. with rotation then spun at 21000 rcf for 10 minutes at 4° C. to pellet insoluble debris. Protein concentration was determined using the Pierce BCA Protein Assay Kit (ThermoFisher, 23225). An equivalent amount of protein per sample was pre-cleared with Dynabeads Protein G (Invitrogen) bound to mouse IgG (Abcam #131368) for 1 hour at 4° C. with rotation. FLAG-tagged constructs were then immunoprecipitated with Dynabeads Protein G beads coupled to mouse anti-FLAG M2 mAb (Sigma F3165) for 3 hours at 4° C. with rotation. Beads were washed 3× with 1 mL IP buffer and eluted by adding 2× NuPage LDS Sample Buffer (Thermo Fisher, diluted from 4× with PBS) to the beads and heating for 10 minutes at 70° C.
For LC-MS, anti-FLAG immunoprecipitation was performed with beads cross-linked to the anti-FLAG antibody and the proteins competitively eluted with FLAG peptide. Eluted protein samples were electrophoresed into a NuPage 4-12% Bis-Tris gel, excised, and processed by the Fred Hutchinson Cancer Research Center Proteomics Core. Samples were reduced, alkylated, digested with trypsin, desalted, and run on the Orbitrap Eclipse Tribid Mass Spectrometer (Thermo Fisher). Proteomics data were analyzed using Proteome Discoverer 2.4 against a Uniprot human database that included common contaminants using Sequest HT and Percolator for scoring. […] Proteins that were identified in at least one sample from both independent experiments with at least 2 PSMs in one sample were assigned to one of ten categories: 1, candidates; 2, cytoskeletal associated; 3, cytoskeletal; 4, ribosome/translation associated; 5, proteasome associated; 6, membrane or extracellular; ER, golgi, or vesicle associated; 8, lipid metabolism; 9, chaperones; 10, nuclear import or nuclear membrane associated. The proteins in category 1 were further investigated for interactions with DUX4.

B1: USP11 (protein)
chain: MAVAPRLFGGLCFRFRDQNPEVAVEGRLPISHSCVGCRRERTAMATVAANPAAAAAAVAAAAAVTEDREPQHEELPGLDSQWRQIENGESGRERPLRAGESWFLVEKHWYKQWEAYVQGGDQDSSTFPGCINNATLFQDEINWRLKEGLVEGEDYVLLPAAAWHYLVSWYGLEHGQPPIERKVIELPNIQKVEVYPVELLLVRHNDLGKSHTVQFSHTDSIGLVLRTARERFLVEPQEDTRLWAKNSEGSLDRLYDTHITVLDAALETGQLIIMETRKKDGTWPSAQLHVMNNNMSEEDEDFKGQPGICGLTNLGNTCFMNSALQCLSNVPQLTEYFLNNCYLEELNFRNPLGMKGEIAEAYADLVKQAWSGHHRSIVPHVFKNKVGHFASQFLGYQQHDSQELLSFLLDGLHEDLNRVKKKEYVELCDAAGRPDQEVAQEAWQNHKRRNDSVIVDTFHGLFKSTLVCPDCGNVSVTFDPFCYLSVPLPISHKRVLEVFFIPMDPRRKPEQHRLVVPKKGKISDLCVALSKHTGISPERMMVADVFSHRFYKLYQLEEPLSSILDRDDIFVYEVSGRIEAIEGSREDIVVPVYLRERTPARDYNNSYYGLMLFGHPLLVSVPRDRFTWEGLYNVLMYRLSRYVTKPNSDDEDDGDEKEDDEEDKDDVPGPSTGGSLRDPEPEQAGPSSGVTNRCPFLLDNCLGTSQWPPRRRRKQLFTLQTVNSNGTSDRTTSPEEVHAQPYIAIDWEPEMKKRYYDEVEAEGYVKHDCVGYVMKKAPVRLQECIELFTTVETLEKENPWYCPSCKQHQLATKKLDLWMLPEILIIHLKRFSYTKFSREKLDTLVEFPIRDLDFSEFVIQPQNESNPELYKYDLIAVSNHYGGMRDGHYTTFACNKDSGQWHYFDDNSVSPVNENQIESKAAYVLFYQRQDVARRLLSPAGSSGAPASPACSSPPSSEFMDVN
4. mL1dL2 + Dox + IFNG: 1

B2: STAT1 (protein)
chain: SQWYELQQLDSKFLEQVHQLYDDSFPMEIRQYLAQWLEKQDWEHAANDVSFATIRFHDLLSQLDDQYSRFSLENNFLLQHNIRKSKRNLQDNFQEDPIQMSMIIYSCLKEERKILENAQRFNQAQSGNIQSTVMLDKQKELDSKVRNVKDKVMCIEHEIKSLEDLQDEYDFKCKTLQNREHETNGVAKSDQKQEQLLLKKMYLMLDNKRKEVVHKIIELLNVTELTQNALINDELVEWKRRQQSACIGGPPNACLDQLQNWFTIVAESLQQVRQQLKKLEELEQKYTYEHDPITKNKQVLWDRTFSLFQQLIQSSFVVERQPCMPTHPQRPLVLKTGVQFTVKLRLLVKLQELNYNLKVKVLFDKDVNERNTVKGFRKFNILGTHTKVMNMEESTNGSLAAEFRHLQLKEQKNAGTRTNEGPLIVTEELHSLSFETQLCQPGLVIDLETTSLPVVVISNVSQLPSGWASILWYNMLVAEPRNLSFFLTPPCARWAQLSEVLSWQFSSVTKRGLNVDQLNMLGEKLLGPNASPDGLIPWTRFCKENINDKNFPFWLWIESILELIKKHLLPLWNDGCIMGFISKERERALLKDQQPGTFLLRFSESSREGAITFTWVERSQNGGEPDFHAVEPYTKKELSAVTFPDIIRNYKVMAAENIPENPLKYLYPNIDKDHAFGKYYSRPKEAPEPMELDGPKGTGYIKTELISVSEVHPSRLQTTDNLLPMSPEEFDEVSRIVGSVEFDSMMNTV
4. + IFNG mix: 3
4. mL1dL2 + Dox + IFNG: 18

B3: CKAP4 (protein)
chain: MPSAKQRGSKGGHGAASPSEKGAHPSGGADDVAKKPPPAPQQPPPPPAPHPQQHPQQHPQNQAHGKGGHRGGGGGGGKSSSSSSASAAAAAAAASSSASCSRRLGRALNFLFYLALVAAAAFSGWCVHHVLEEVQQVRRSHQDFSRQREELGQGLQGVEQKVQSLQATFGTFESILRSSQHKQDLTEKAVKQGESEVSRISEVLQKLQNEILKDLSDGIHVVKDARERDFTSLENTVEERLTELTKSINDNIAIFTEVQKRSQKEINDMKAKVASLEESEGNKQDLKALKEAVKEIQTSAKSREWDMEALRSTLQTMESDIYTEVRELVSLKQEQQAFKEAADTERLALQALTEKLLRSEESVSRLPEEIRRLEEELRQLKSDSHGPKEDGGFRHSEAFEALQQKSQGLDSRLQHVEDGVLSMQVASARQTESLESLLSKSQEHEQRLAALQGRLEGLGSSEADQDGLASTVRSLGETQLVLYGDVEELKRSVGELPSTVESLQKVQEQVHTLLSQDQAQAARLPPQDFLDRLSSLDNLKASVSQVEADLKMLRTAVDSLVAYSVKIETNENNLESAKGLLDDLRNDLDRLFVKVEKIHEKV
4. + IFNG mix: 24
4. mL1dL2 + Dox + IFNG: 19

B4: ACTN1 (protein)
chain: MDHYDSQQTNDYMQPEEDWDRDLLLDPAWEKQQRKTFTAWCNSHLRKAGTQIENIEEDFRDGLKLMLLLEVISGERLAKPERGKMRVHKISNVNKALDFIASKGVKLVSIGAEEIVDGNVKMTLGMIWTIILRFAIQDISVEETSAKEGLLLWCQRKTAPYKNVNIQNFHISWKDGLGFCALIHRHRPELIDYGKLRKDDPLTNLNTAFDVAEKYLDIPKMLDAEDIVGTARPDEKAIMTYVSSFYHAFSGAQKAETAANRICKVLAVNQENEQLMEDYEKLASDLLEWIRRTIPWLENRVPENTMHAMQQKLEDFRDYRRLHKPPKVQEKCQLEINFNTLQTKLRLSNRPAFMPSEGRMVSDINNAWGCLEQVEKGYEEWLLNEIRRLERLDHLAEKFRQKASIHEAWTDGKEAMLRQKDYETATLSEIKALLKKHEAFESDLAAHQDRVEQIAAIAQELNELDYYDSPSVNARCQKICDQWDNLGALTQKRREALERTEKLLETIDQLYLEYAKRAAPFNNWMEGAMEDLQDTFIVHTIEEIQGLTTAHEQFKATLPDADKERLAILGIHNEVSKIVQTYHVNMAGTNPYTTITPQEINGKWDHVRQLVPRRDQALTEEHARQQHNERLRKQFGAQANVIGPWIQTKMEEIGRISIEMHGTLEDQLSHLRQYEKSIVNYKPKIDQLEGDHQLIQEALIFDNKHTNYTMEHIRVGWEQLLTTIARTINEVENQILTRDAKGISQEQMNEFRASFNHFDRDHSGTLGPEEFKACLISLGYDIGNDPQGEAEFARIMSIVDPNRLGVVTFQAFIDFMSRETADTDTADQVMASFKILAGDKNYITMDELRRELPPDQAEYCIARMAPYTGPDSVPGALDYMSFSTALYGESDL
4. + IFNG mix: 9
4. mL1dL2 + Dox + IFNG: 22

B5: DBN1 (protein)
chain: AGVSFSGHRLELLAAYEEVIREESAADWALYTYEDGSDDLKLAASGEGGLQELSGHFENQKVMYGFCSVKDSQAALPKYVLINWVGEDVPDARKCACASHVAKVAEFFQGVDVIVNASSVEDIDAGAIGQRLSNGLARLSSPVLHRLRLREDENAEPVGTTYQKTDAAVEMKRINREQFWEQAKKEEELRKEEERKKALDERLRFEQERMEQERQEQEERERRYREREQQIEEHRRKQQTLEAEEAKRRLKEQSIFGDHRDEEEETHMKKSESEVEEAAAIIAQRPDNPREFFKQQERVASASAGSCDVPSPFNHRPGSHLDSHRRMAPTPIPTRSPSDSSTASTPVAEQIERALDEVTSSQPPPLPPPPPPAQETQEPSPILDSEETRAAAPQAWAGPMEEPPQAQAPPRGPGSPAEDLMFMESAEQAVLAAPVEPATADATEIHDAADTIETDTATADTTVANNVPPAATSLIDLWPGNGEGASTLQGEPRAPTPPSGTEVTLAEVPLLDEVAPEPLLPAGEGCATLLNFDELPEPPATFCDPEEVEGESLAAPQTPTLPSALEELEQEQEPEPHLLTNGETTQKEGTQASEGYFSQSQEEEFAQSEELCAKAPPPVFYNKPPEIDITCWDADPVPEEEEGFEGGD
4. mL1dL2 + Dox + IFNG: 2

B6: CAVIN1 (protein)
chain: MEDPTLYIVERPLPGYPDAEAPEPSSAGAQAAEEPSGAGSEELIKSDQVNGVLVLSLLDKIIGAVDQIQLTQAQLEERQAEMEGAVQSIQGELSKLGKAHATTSNTVSKLLEKVRKVSVNVKTVRGSLERQAGQIKKLEVNEAELLRRRNFKVMIYQDEVKLPAKLSISKSLKESEALPEKEGEELGEGERPEEDAAALELSSDEAVEVEEVIEESRAERIKRSGLRRVDDFKKAFSKEKMEKTKVRTRENLEKTRLKTKENLEKTRHTLEKRMNKLGTRLVPAERREKLKTSRDKLRKSFTPDHVVYARSKTAVYKVPPFTFHVKKIREGQVEVLKATEMVEVGADDDEGGAERGEAGDLRRGSSPDVHALLEITEESDAVLVDKSDSD
4. + IFNG mix: 7
4. mL1dL2 + Dox + IFNG: 16
